Changes are numbered by the printed parent chain.
How the values were obtained:
[1] = target: T1, S. aureus gamma-hemolysin component A (HlgA) (Staphylococcus aureus, UniProt P0A071 30-309); experiment: BLI, biotinylated VHH on streptavidin sensor, HlgA in solution
T1 sequence: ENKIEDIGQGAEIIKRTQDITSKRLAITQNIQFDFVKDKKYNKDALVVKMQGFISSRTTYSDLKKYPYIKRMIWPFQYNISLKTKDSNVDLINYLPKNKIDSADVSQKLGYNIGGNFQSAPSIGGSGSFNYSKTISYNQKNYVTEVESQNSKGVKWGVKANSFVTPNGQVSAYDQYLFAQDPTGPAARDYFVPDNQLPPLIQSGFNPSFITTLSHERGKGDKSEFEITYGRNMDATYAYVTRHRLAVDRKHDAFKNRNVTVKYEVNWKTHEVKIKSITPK

[2] = target: T2, S. aureus gamma-hemolysin component C (HlgC) (Staphylococcus aureus, UniProt Q07227 30-315); experiment: BLI, biotinylated VHH on streptavidin sensor, HlgC in solution
T2 sequence: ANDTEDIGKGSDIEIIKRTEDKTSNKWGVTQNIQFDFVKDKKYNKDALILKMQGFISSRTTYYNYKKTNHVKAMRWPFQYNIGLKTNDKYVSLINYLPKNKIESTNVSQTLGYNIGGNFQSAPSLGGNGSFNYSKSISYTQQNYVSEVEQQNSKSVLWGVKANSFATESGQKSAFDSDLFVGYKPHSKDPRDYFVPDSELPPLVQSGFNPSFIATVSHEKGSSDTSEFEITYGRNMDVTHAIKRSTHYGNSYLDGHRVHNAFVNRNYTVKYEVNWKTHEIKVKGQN

[3] = target: T3, S. aureus gamma-hemolysin component B (HlgB) (Staphylococcus aureus, UniProt P0A075 27-325); experiment: BLI, biotinylated VHH on streptavidin sensor, HlgB in solution
T3 sequence: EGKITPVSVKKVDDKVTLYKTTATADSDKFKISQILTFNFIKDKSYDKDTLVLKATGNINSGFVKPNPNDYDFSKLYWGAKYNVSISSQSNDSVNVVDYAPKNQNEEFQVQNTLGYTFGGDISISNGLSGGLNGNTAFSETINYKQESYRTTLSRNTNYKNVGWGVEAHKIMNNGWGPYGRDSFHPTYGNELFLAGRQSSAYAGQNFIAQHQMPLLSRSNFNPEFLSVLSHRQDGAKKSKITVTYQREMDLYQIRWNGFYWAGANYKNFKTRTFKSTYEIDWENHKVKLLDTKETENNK

B1: Bm31A08 (VHH)
VHH: QVQLVESGGGLAQPGGSLTLSCAASGVVWSKYVMSWVRQVPEKGFEWVSGIKSDGSDTYYADSVKGRFTVSGDLAKKTVYLQLNSLKPEDTALYYCVLEYGTSWPPRVEEYDYWGQGTQVTVSS
[1]
  Kd: ≤ 0.01 nM

B2: Bm31A09 (VHH)
VHH: QVQLVQSGGGLVQAGGSLRLSCAASGSTGSIYVMGWFRQAPGKQRELVASITRGEGSANYADSVKGRFTISRDNAKNTLYLQMNSLKPEDTAVYYCHADTGLGDYSDYAPHGYKYDYWGQGTQVTVSS
[1]
  Kd: 0.05 nM

B3: Bm31D02 (VHH)
VHH: B2 VHH with Q6E
[1]
  Kd: 0.07 nM

B4: Bm31A04 (VHH)
VHH: QVQLVQSGGGLVQPGGSLRLSCAASESISNIYVMGWFRQAPGKQRELVAAITSSNNTNYADSVKGRFTISRDNAKNTVYLQMNSLKPEDTAVYYCNADWGLGGYSDYGEYDYWGQGTQVTVSS
[1]
  Kd: 0.06 nM

B5: Bm32B07 (VHH)
VHH: QVQLVESGGGLVQTGGSLRLSCATSGRISSIYAMPWFRQAPGKEREFVAAISWHTDLAYYADSVKGRFTISKDNAKNTVYLQMNSLKPEDTAVYYCNIPSKEEYDRNYYYPTGGSWGQGTQVTVSS
[2]
  Kd: 0.045 nM

B6: Bm32A03 (VHH)
VHH: B5 VHH with G10A, A23V, R27S, D56N, N84D, V93T, I98V, N107T, Y108S
[2]
  Kd: 0.025 nM

B7: Bm32D01 (VHH)
VHH: B5 VHH with A58T, G66D, N77A, S85N, K87Q, I98V, E103Q, N107T, Y108S
[2]
  Kd: 0.03 nM

B8: Bm32A08 (VHH)
VHH: QVQLVESGGGLVQAGGSLRVSCAASGDWFIINSMAWFRQAPGKQREQVATISHGGIPRYADSVKGRFTISRDNSKGAVYLQMNNLKSDDTAMYVCAAGGLDYGFPDPTPEEFDYWGRGTQVTVSS
[2]
  Kd: 0.045 nM

B9: Bm32F03 (VHH)
VHH: B8 VHH with N73D, G76D
[2]
  Kd: 0.85 nM

B10: Bm29B04 (VHH)
VHH: QVQLVESGGGLVQAGGSLRLSCAASGFTFDDYVIGWFRQAPGKEREAVACISNGDGVANVPNSMKGRFTISSDSAKNTVHLRADSLKADDTGVYYCAAVKERLCVHEGMEYWGKGTQVTVSS
[3]
  Kd: ≤ 0.01 nM

B11: Bm29B05 (VHH)
VHH: QVQLVESGGGLVQAGGSLRLSCAASGFTFDDYVIGWFRQAPGKEREAVACISNGDGVTNYPNSMRGRFTISSDSAKNTVYLQTDSLKPDDTGVYYCATAKERLCVQGGMEYWGKGTLVTVSS
[3]
  Kd: ≤ 0.01 nM

B12: Bm29C02 (VHH)
VHH: QVQLVESGGGLVQPGGSLRLSCTASGFTLDDWAIGWFRQAPGKEREGVSCTSSRERSSYYRDSVKGRFTISRDSTSNTVYLQMNELTLEDTAVYYCAADPQPYPCSLGQLGRYTTWGQGTQVTVSS
notes: also called anti-HlgB VHH Bm29C02
[3]
  Kd: 0.01 nM

B13: Bm31F09 (VHH)
VHH: QVQLVESGGALVQPGGSLRLSCAASGFTFDDYVMSWVRQAPGTGLEWVSSIHTASSDTYYADSVKDRFTISTDNAKNTLYLQMNSLKPEDTAVYYCAADKAPLTIATMTRDEYDYWGQGTQVTVSS
[1]
  Kd: 0.09 nM

B14: Bm31G12 (VHH)
VHH: QVQLVESGGGLVQPGGSLRLSCAAAGFTVDDYVMSWVRQVPGKGREWVSSIHSYSSDTYYADSVKGRFTISTDNAKNTLYLQMNSLKPEDTAVYYCAADKDPLTIATMTRYEYDYWGQGTQVTVSS
[1]
  Kd: 0.025 nM

B15: Bm29E06 (VHH)
VHH: QVQLVESGGGLVQPGGSLRLSCTASGVSLYDFAVGWFRQAPGKEREGVSCSSSRDRSEYYRDSVKGRFDIVRDNLKNIIYLQMDNLTIEDTAVYFCAADSQPYPCSLGSLERYDSWGQGTQVTVSS
[3]
  Kd: 0.03 nM

B16: Bm29F05 (VHH)
VHH: B15 VHH with F37W, S51T, D69T, I78T, N85S, T120I
[3]
  Kd: 0.02 nM

B17: Bm29H04 (VHH)
VHH: QVQLVESGGGLVQPGGSLRLSCTASGVSLDDFAIGWFRQAPGKEREGVSCSSSRDRSEYYRDSVKGRFTISRDSQKNTVDLQMNSLTIEDTAVYYCAADPQPYPCSVGSLDRYNSWGQGTLVTVSS
[3]
  Kd: 0.06 nM

B18: Bm31B04 (VHH)
VHH: QVQLVESGGGLVQPGGSLRLSCAASGSSFSIYGMSWYRQAPGNQRELVALINVGDWTTYADSVKGRFTISRDSAKNTVYLQMNSLKPEDTAVYYCKADLSVSGSSFIRTYWGQGTQVTVSS
[1]
  Kd: ≤ 0.01 nM

B19: Bm31G04 (VHH)
VHH: QVQLVESGGGLVQPGGSLRLSCAASGITFTFYDMGWYRQAPGKQRELVATISISSSTTYADSVKGRFTISRDNAKNTVYLQMNSLKPEDTAVYYCNAQHVDSDYLAGYDYFGQGTQVTVSS
[1]
  Kd: 0.025 nM

B20: Bm31D04 (VHH)
VHH: B19 VHH with T28I, T30D, T50G, S55G, V78I, Q98H, A106R
[1]
  Kd: 0.05 nM

B21: Bm31G03 (VHH)
VHH: B19 VHH with P14A, T28I, T30S, L47V, S55G, S56R, N73D, Y94I
[1]
  Kd: 0.015 nM

B22: Bm29D07 (VHH)
VHH: QVQLVESGGGLVQPGGSLRLSCTASSIIVSYYAIGWFRQAPGKGREGVSRITVPAGNLYYADSVKGRFSITRDDVKNTVYLQMNSFQVEDTATYYCAVSYGDSWVDPSYVDHWGQGIQVTVSS
[3]
  Kd: ≤ 0.01 nM
